Measured values taken from patent US20140363441A1 (priority 2013, published 2014).

Molecular target: M2 protein of influenza A/Puerto Rico/8/34 (H1N1) on the surface of infected MDCK cells or transfected cells (influenza A virus H1N1 A/Puerto Rico/8/34) (UniProt P06821)
Test: flow cytometry, PR8-infected MDCK cells

UniProt P06821, sequence (P06821 whole entry): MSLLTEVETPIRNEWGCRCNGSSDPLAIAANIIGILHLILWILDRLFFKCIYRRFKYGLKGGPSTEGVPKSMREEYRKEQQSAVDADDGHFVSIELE

**Q.** How did the EC50 (read off the curve) turn out when “chimeric mouse V-region/human IgG1 kappa 14C2 antibody” was run?
**A.** 0.3 µg/mL
